Experimental data taken from patent US20170240637A1 (Memorial Sloan Kettering, published 2017).

T1: 4Ig-B7H3 (human, UniProt Q5ZPR3 27-461, limits assumed)
T1 construct: also called 4Ig-B73H3
T1 sequence (looked up): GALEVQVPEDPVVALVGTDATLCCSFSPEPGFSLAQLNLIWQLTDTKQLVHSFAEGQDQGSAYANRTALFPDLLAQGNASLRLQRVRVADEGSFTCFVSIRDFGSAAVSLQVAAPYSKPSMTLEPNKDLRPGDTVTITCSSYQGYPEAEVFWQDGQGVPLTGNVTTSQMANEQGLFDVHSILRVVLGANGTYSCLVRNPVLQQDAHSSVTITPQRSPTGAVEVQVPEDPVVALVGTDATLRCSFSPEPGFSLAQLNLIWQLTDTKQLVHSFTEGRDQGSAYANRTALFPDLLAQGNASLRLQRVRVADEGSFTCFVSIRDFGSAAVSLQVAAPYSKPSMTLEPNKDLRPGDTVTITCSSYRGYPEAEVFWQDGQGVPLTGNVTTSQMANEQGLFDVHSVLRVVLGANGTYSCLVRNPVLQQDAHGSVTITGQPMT

T2: 2Ig-B7H3 without Fc fusion (human, UniProt Q5ZPR3-2 29-245, limits assumed)
T2 construct: also called 2IgB7H3 (R&D)
T2 sequence (looked up): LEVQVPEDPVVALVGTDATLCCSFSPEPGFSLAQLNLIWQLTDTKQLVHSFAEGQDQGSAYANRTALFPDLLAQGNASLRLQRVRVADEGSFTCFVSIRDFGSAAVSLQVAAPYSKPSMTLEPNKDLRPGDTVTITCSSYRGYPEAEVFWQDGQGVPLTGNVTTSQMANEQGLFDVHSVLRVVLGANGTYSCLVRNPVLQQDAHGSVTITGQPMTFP

T3: wild type 2Ig-B7H3-mFc (human, UniProt Q5ZPR3-2 29-248, limits assumed)
T3 construct: Q5ZPR3 canonical entry is the 4Ig isoform; the 2Ig form is its shorter isoform; also called 2Ig-B7H3-Fc; WT 2Ig-B7H3-Fc; not shown: mouse Fc
T3 sequence (looked up): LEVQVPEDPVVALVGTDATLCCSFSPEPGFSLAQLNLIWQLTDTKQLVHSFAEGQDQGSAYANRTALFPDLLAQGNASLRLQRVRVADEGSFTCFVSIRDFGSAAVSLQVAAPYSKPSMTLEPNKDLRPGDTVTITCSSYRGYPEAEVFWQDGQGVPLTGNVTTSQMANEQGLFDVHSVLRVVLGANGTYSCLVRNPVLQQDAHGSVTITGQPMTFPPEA

T4: 4Ig-B7H3 fused to mouse Fc (B7H3-mFc) (human, UniProt Q5ZPR3 29-466, limits assumed, biotinylated on primary amines (NHS-biotin) in the experiment of paragraph 316)
T4 construct: Expressed in DG44 CHO cells; also called 4Ig-B7H3-Fc; 4Ig-B7H3-mFc; not shown: mouse Fc
T4 sequence (looked up): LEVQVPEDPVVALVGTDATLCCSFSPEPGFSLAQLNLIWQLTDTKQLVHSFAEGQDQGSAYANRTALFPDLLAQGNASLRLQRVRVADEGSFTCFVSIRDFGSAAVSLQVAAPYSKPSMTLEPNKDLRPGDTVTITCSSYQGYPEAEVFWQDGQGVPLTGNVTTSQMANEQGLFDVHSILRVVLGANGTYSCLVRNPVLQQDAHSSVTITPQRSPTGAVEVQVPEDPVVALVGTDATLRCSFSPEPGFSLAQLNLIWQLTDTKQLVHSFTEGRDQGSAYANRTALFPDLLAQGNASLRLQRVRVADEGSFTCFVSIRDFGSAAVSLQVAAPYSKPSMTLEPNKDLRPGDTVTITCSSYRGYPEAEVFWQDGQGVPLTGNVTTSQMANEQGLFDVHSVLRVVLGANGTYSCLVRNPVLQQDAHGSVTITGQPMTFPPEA


Tests used:
4Ig-B7H3 [1] = biological target: T1, 4Ig-B7H3; assay: SPR (Biacore T-100), 4Ig-B7H3 on CM5 chip, scFv injected
Procedure: (§1) In brief, B7H3 antigen (either 2Ig-B7H3, 4Ig-B7H3, 2Ig-B7H3-mFc, 4Ig-B7H3-mFc), was directly immobilized onto the CM5 sensor chip via […]. Reference surface was set up for nonspecific binding and refractive index changes. For analysis of the kinetics of interactions, varying concentrations of scFvs were injected at flow rate of 30 μl/min using running buffer containing 10 mM HEPES, 150 mM NaCl, 3 mM EDTA, and 0.05% Surfactant P-20 (pH 7.4). The association and dissociation phase data were fitted simultaneously to a 1:1 model by using BIAevaluation 3.2. All the experiments were done at 25° C.

4Ig-B7H3 [2] = biological target: T1, 4Ig-B7H3; assay: SPR (Biacore), scFv; antigen not given
Procedure: as §1

4Ig-B7H3 [3] = biological target: T1, 4Ig-B7H3; assay: SPR
4Ig-B7H3 [4] = biological target: T1, 4Ig-B7H3; assay: SPR, IgG on 4Ig-B7-H3 without Fc fusion
Procedure: (§2) In brief, B7H3 antigen (either 2Ig-B7H3, 4Ig-B7H3, 2Ig-B7H3-mFc, 4Ig-B7H3-mFc), was directly immobilized onto the CM5 sensor chip via […]. Reference surface was set up for nonspecific binding and refractive index changes. […] The association and dissociation phase data were fitted simultaneously to a 1:1 model by using BIAevaluation 3.2. All the experiments were done at 25° C.

[5] = biological target: T2, 2Ig-B7H3 without Fc fusion; assay: SPR, IgG on 2Ig-B7-H3 without Fc fusion
Procedure: as §2

wild type 2Ig-B7H3-mFc = biological target: T3, wild type 2Ig-B7H3-mFc; assay: SPR, IgG on 2Ig-B7H3-mFc
Procedure: as §2

[6] = biological target: T4, 4Ig-B7H3 fused to mouse Fc (B7H3-mFc); assay: SPR, IgG on 4Ig-B7H3-Fc
Procedure: as §2

4Ig-B7H3 [7] = biological target: T1, 4Ig-B7H3; assay: SPR, antigen on CM5 chip
Procedure: as §1

Binder	Kd (4Ig-B7H3 [1]) [nM]	koff (4Ig-B7H3 [1]) [s⁻¹]	kon (4Ig-B7H3 [1]) [M⁻¹ s⁻¹]	Kd (4Ig-B7H3 [2]) [nM]	koff (4Ig-B7H3 [2]) [s⁻¹]	kon (4Ig-B7H3 [2]) [M⁻¹ s⁻¹]	further results
hu8H9 H3L3 scFv (scFv, also called parental hu8H9 H3L3; not shown: FLAG and His tags) scFv: QVQLVQSGAEVVKPGASVKLSCKASGYTFTNYDINWVRQRPEQGLEWIGWIFPGDGSTQYNEKFKGKATLTTDTSTSTAYMELSSLRSEDTAVYFCARQTTATWFAYWGQGTLVTVSSGGGGSGGGGSGGGGSEIVMTQSPATLSVSPGERVSLSCRASQSISDYLHWYQQKSHESPRLLIKYASQSISGIPARFSGSGSGSEFTLTINSVEPEDVGVYYCQNGHSFPLTFGQGTKLELKR	144	0.000919	6380	144	0.000919	6380	
hu8H9 clone S7.22 scFv (scFv, not shown: FLAG and His tags) scFv: QVQLVQSGAEVVKPGASVKLSCKTSGYTFTNYDINWVRQRPGQGLEWIGWIFPGDDSTQYNEKFKGKATLTTDTSTSTAYMELSSLRPEDTAVYFCARQTTGTWFAYWGQGTLVTVSSGGGGSGGGGSGGGGSEIVMTQSPATLSVSPGERVTLSCRASQSISDYLYWYQQKSHESPRLLIKYASQSIPGIPARFSGSGSGSEFTLTINSVEPEDVGVYYCQNGHSFPLTFGQGTKLELKR	1.2	9.99e-05	86100				fold affinity improvement against parental hu8H9 H3L3 scFv (4Ig-B7H3 [3]): > 50 fold; fold binding improvement against parental hu8H9 H3L3 scFv (4Ig-B7H3 [3]): > 100 fold
hu8H9 4.1 scFv (scFv, not shown: FLAG and His tags) scFv: QVQLVQSGAEVVKPGASVKVSCKASGYTFTNYDINWVRQRPEQGLEWIGWIFPGDGSTQYNEKFKGRVTMTTDTSTSTVYMELSSLRSEDTAVYFCARQTTATWFAYWGQGTLVTVSSGGGGSGGGGSGGGGSEIVMTQSPATLSVSPGERVTLSCRASQSISDYLHWYQQKSHQAPRLLIKYASQSISGIPARFSGSGSGSEFTLTISSLQPEDFGVYYCQNGHSFPLTFGQGTKLELKR				45.7	0.000557	12200	
hu8H9 clone S7.2 scFv (scFv, not shown: FLAG and His tags) scFv: QVQLVQSGAEVVKPGASCKLSCKTSGYTFTNYDINWVRQRPGQGLEWIGWIFPGDGSTQYNEKFKGKATLTTDTSTSTAYMELSSLRSEDTAVYFCARQTTATWFAYWGQGTLVTVSSGGGGSGGGGSGGVGSEIVMTQSPATLSVSPGERVTLSCRASQSIGDYLYWYQQKSHESPRLLIKYASQSISGIPARFSGSGSGSEFTLTINSVEPEDVGVYYCQNGHSFPLTFGQGTKLELKR	5.6	0.000143	25400				
hu8H9 clone S7.28 scFv (scFv, not shown: FLAG and His tags) scFv: QVQLVQSGAEVVKPGASVKLSCKTSGYTFTNYDINWVRQRPGQGLEWIGWIFPGDGSTQYNEKFKGKATLTTDTSTSTAYMELSSLGSEDTAVYFCTRQTTATWFAYWGQGTLVTVSSGGGGSGGGGSSGGGSEIVMTQSPATLSVSPGERVTLSCRASQSIGDYLYWYQQKSHESPRLLIKYASQSISGIPARFSGSGSGSEFTLTINSVEPEDVGVYYCQNGHSFPLTFGQGTKLELKR	277	0.00132	4750				
hu8H9 clone S7.17 scFv (scFv, not shown: FLAG and His tags) scFv: QVQLVQSGAEVVKPGASVKLSCKTSGYTFTNYDINWVRQRPGQGLEWVGWIFPGDGSTQYNEKFKGKATLTTDTSTSTAYMELSSLRSEDTAVYFCARQTTSTWFAYWGQGTLVTVSSGGGGSGGGGSGGGGSEIVMTQSPATLSVSPGERVTLSCRASQPISDYLYWYQQKSHESPRLLIKYASQSISGIPARFSGSGSGSEFTLTINSVEPEDVGVYYCQNGYSFPLTFGQGTKLELKR	2.2	0.000113	51000				fold affinity improvement against parental hu8H9 H3L3 scFv (4Ig-B7H3 [3]): > 50 fold
hu8H9 clone S7.29 scFv (scFv, not shown: FLAG and His tags) scFv: QVQLVQSGAEVVKPGASVKLSCKTSGYTFTNYDINWVRQRPGQGLEWIGWIFPGDGSTQYNEKFKGKATLTTDTSTSTAYLELSSLGSEDTAVYFCARQTTGTWFAYWGQGTLVTVSSGGGGSGGGGSGGGGSEIVMTQSPATLSVSPGERVTLSCRASQSISDYLYWYQQKSHESPRLLIKYASQSISGIPARFSGSGSGSEFTLTINSVEPEDVGVYYCQNGHSFPLTFGQGTKLELKR	2.7	0.000152	55900				fold affinity improvement against parental hu8H9 H3L3 scFv (4Ig-B7H3 [3]): > 50 fold
hu8H9 3.1 scFv (scFv, not shown: FLAG and His tags) scFv: QVQLVQSGAEVVKPGASVKLSCKTSGYTFTNYDINWVRQRPGQGLEWIGWIFPGDDSTQYNEKFKGKATLTTDTSTSTAYMELSSLRSEDTAVYFCARQTTGTWFAYWGQGTLVTVSSGGGGSGGGGSGGGGSEIVMTQSPATLSVSPGERVTLSCRASQSISDYLYWYQQKSHESPRLLIKYASQSISGIPARFSGSGSGSEFTLTINSVEPEDVGVYYCQNGHSFPLTFGQGTKLELKR				0.92	9.52e-05	104000	
hu8H9 5.1 scFv (scFv, not shown: FLAG and His tags) scFv: QVQLVQSGAEVVKPGASVKVSCKTSGYTFTNYDINWVRQRPGQGLEWIGWIFPGDDSTQYNEKFKGRVTMTTDTSTSTVYMELSSLRSEDTAVYFCARQTTGTWFAYWGQGTLVTVSSGGGGSGGGGSGGGGSEIVMTQSPATLSVSPGERVTLSCRASQSISDYLYWYQQKSHQAPRLLIKYASQSISGIPARFSGSGSGSEFTLTISSLQPEDFGVYYCQNGHSFPLTFGQGTKLELKR				1.7	9.84e-05	58800	
hu8H9 H3L3 IgG1 (antibody, V domains shown) VH: QVQLVQSGAEVVKPGASVKLSCKASGYTFTNYDINWVRQRPEQGLEWIGWIFPGDGSTQYNEKFKGKATLTTDTSTSTAYMELSSLRSEDTAVYFCARQTTATWFAYWGQGTLVTVSS VL: EIVMTQSPATLSVSPGERVSLSCRASQSISDYLHWYQQKSHESPRLLIKYASQSISGIPARFSGSGSGSEFTLTINSVEPEDVGVYYCQNGHSFPLTFGQGTKLELKR							Kd (4Ig-B7H3 [4]): 33 nM; koff (4Ig-B7H3 [4]): 0.000677 s⁻¹; kon (4Ig-B7H3 [4]): 20500 M⁻¹ s⁻¹; Kd [5]: 45 nM; koff [5]: 0.000607 s⁻¹; kon [5]: 13500 M⁻¹ s⁻¹; Kd (wild type 2Ig-B7H3-mFc): 7.5 nM; koff (wild type 2Ig-B7H3-mFc): 0.035 s⁻¹; kon (wild type 2Ig-B7H3-mFc): 4.67e+06 M⁻¹ s⁻¹; Kd [6]: 6.6 nM; koff [6]: 0.0452 s⁻¹; kon [6]: 6.83e+06 M⁻¹ s⁻¹
hu8H9-H1L1 IgG1 (antibody, V domains shown) VH: QVQLVQSGAEVKKPGASVKLSCKASGYTFTNYDINWVRQAPGQGLEWIGWIFPGDGSTQYNEKFKGKATLTTDTSTSTAYMELSSLRSEDTAVYFCARQTTATWFAYWGQGTLVTVSS VL: EIVMTQSPATLSVSPGERVTLSCRASQSISDYLHWYQQKPGQAPRLLIKYASQSISGIPARFSGSGSGTEFTLTISSVQPEDVGVYYCQNGHSFPLTFGQGTKLEIKR							Kd (4Ig-B7H3 [7]): 112 nM
